How the values were obtained:
[1] = tested on: Tetranychus urticae; test: Slide dipping method, miticidal activity against Tetranychus urticae; conditions: for Mortality (%): 24 hrs after dipping; for Probability Unit (P + 5): probit of mortality
Excerpt: (§1) Referring to the standard method for determining pest mites, namely, the slide dipping method, recommended by Food and Agriculture Organization of the United Nations (FAO), a double-faced adhesive tape is cut into pieces 2-3 cm long and stuck to one end of a microscope slide, and paper on the adhesive tape is removed with tweezers. Female adult mites with similar sizes, bright body color, and high vitality are picked with a 0# Chinese writing brush, and are stuck to the double-faced adhesive tape (note: the feet, whiskers, and mouthparts of the mites should not be stuck) on their backs, with 4 lines stuck to each piece and 10 mites in each line. The mites are placed and left in a biochemical incubator for 4 hrs at temperature of 25° C. and a relative humidity of approximately 85%, and then are observed with binoculars. […] The agent is diluted 5-7 times with water based on a preliminary test. One end of the slide with the mites is dipped into the agent solution, shaken lightly for 5 s, and then taken out. The mites, as well as the excessive agent solution therearound, are rapidly dried with absorbent paper. The slide is placed and left in the above biochemical incubator. After 24 hrs, the results are checked with the binoculars. The bodies of the mites are lightly touched with the Chinese writing brush, and those without any motion of their feet are considered to be dead. The test is repeated three times at each concentration, and the mites dipped in fresh water are taken as a control. […] An LC50 value is calculated by using SPASS 19.0 data processing software.

[2] = tested on: Panonychus citri; test: Slide dipping method, miticidal activity against Panonychus citri; conditions: for Mortality (%): 24 hrs after dipping; for Probability Unit (P + 5): probit of mortality
Excerpt: as §1, with “recommended by the Food and” for “recommended by Food and”, “bright body color and high” for “bright body color, and high”, “biochemical incubator with the temperature of” for “biochemical incubator for 4 hrs at temperature of”, “of approximately 85% for 4 hrs, and then” for “of approximately 85%, and then”, “for 5 s and then” for “for 5 s, and then”, “by using the SPASS 19.0” for “by using SPASS 19.0”

[3] = tested on: Tetranychus cinnabarinus; test: Slide dipping method, miticidal activity against Tetranychus cinnabarinus; conditions: for Mortality (%): 24 hrs after dipping; for Probability Unit (P + 5): probit of mortality
Excerpt: as §1, with “recommended by the Food and” for “recommended by Food and”, “bright body color and high” for “bright body color, and high”, “biochemical incubator with the temperature of” for “biochemical incubator for 4 hrs at temperature of”, “of approximately 85% for 4 hrs, and then” for “of approximately 85%, and then”, “for 5 s and then” for “for 5 s, and then”, “by using the SPASS 19.0” for “by using SPASS 19.0”
An LC50 value is calculated by using the SPASS 19.0 data processing software.

[4] = tested on: strawberry red spider mites; test: Field control of strawberry red spider mites; format: in vivo; conditions: for Control effect (%): corrected against fresh water control
Protocol: Test agents: 20% avermectin spirodiclofen suspension (Hebei Xingbai Agricultural Technology Co., Ltd., diluted 3000 times during use; and the biological mite pesticide BVP10 with the effective protein concentration of 389.5 μg/mL.
The test included three treatments, each repeated three times; blocks are randomly permuted; and the agents are applied to […] in each block with protective rows provided around the plants. […] Ten strawberry plants are taken from each block, with one leaf labeled for each plant. The number of red spider mites on both sides of each of the ten leaves are inspected. The red spider mites are directly observed with a hand-held magnifying lens, and the number of all living mites is taken down. The initial population number of the red spider mites is investigated before the application, and a total of three investigations are conducted on Day 1, Day 4, and Day 7 respectively after the application.
Calculation method of pesticidal effect: the control effect is calculated based on the initial population number of the red spider mites before the application and the number of living red spider mites on each day after the application, and the calculation formula is shown below: The data is analyzed for significance using Duncan's new multiple range method of DPS software.

[5] = Dose 19.475 μg/mL, female adult mites
[6] = Dose 38.95 μg/mL, female adult mites
[7] = Dose 77.9 μg/mL, female adult mites
[8] = Dose 389.5 μg/mL, female adult mites
[9] = Day 4 after application, field spray on strawberry leaves
[10] = Day 7 after application, field spray on strawberry leaves

B1: BVP10 protein: protein shown in SEQ ID NO:2 for controlling tetranychid mites, prokaryotically expressed in Escherichia coli BL21, about 10 kDa (protein)
chain: MLKSKIKKIAGAAVIAGALLVSVSPAKAETLPGLIWVMDKYTDAFKFDMFIKNGNEKWVYVYTRLSDGKVDVEEVKCETIYKDRCYVKQ
modifications: Sequence for protein prepared by prokaryotic expression, eukaryotic expression, or direct synthesis, based the gene sequence of SEQ ID NO 1
Question: Which “Mortality (%)” value [1, 5] does the source give for B1 here?
Answer: Its value is 47.2%.

Question: And the “Probability Unit (P + 5)” value ([1]; Dose 19.475 μg/mL)?
Answer: The value was 4.927.

Question: And the “Mortality (%)” value [1, 6]?
Answer: Its value is 60.6%.

Question: What about the “Probability Unit (P + 5)” value ([1]; Dose 38.95 μg/mL) of the same molecule?
Answer: The value was 5.268.

Question: What about the “Mortality (%)” value [1, 7] of the same molecule?
Answer: Its value is 55.9%.

Question: And the “Probability Unit (P + 5)” value ([1]; Dose 77.9 μg/mL)?
Answer: Its value is 5.148.

Question: And the “Mortality (%)” value [1, 8]?
Answer: Its value is 68.4%.

Question: And the “Probability Unit (P + 5)” value ([1]; Dose 389.5 μg/mL)?
Answer: The value was 5.483.

Question: What about the “Medial Lethal Concentration (LC50, μg/mL)” value (“Medial Lethal Concentration” below) ([1]; female adult mites, 24 hrs, regression Y = 4.5286 + 0.3682X (r = 0.8832)) of the same molecule?
Answer: Its value is 19.07 µg/mL.

Question: And the “Mortality (%)” value [2, 5]?
Answer: Its value is 23.5%.

Question: And the “Probability Unit (P + 5)” value ([2]; Dose 19.475 μg/mL)?
Answer: The value was 4.276.

Question: And the “Mortality (%)” value [2, 6]?
Answer: The value was 47.1%.

Question: And the “Probability Unit (P + 5)” value ([2]; Dose 38.95 μg/mL)?
Answer: The value was 4.922.

Question: What about the “Mortality (%)” value [2, 7] of the same molecule?
Answer: Its value is 63.6%.

Question: And the “Probability Unit (P + 5)” value ([2]; Dose 77.9 μg/mL)?
Answer: Its value is 5.349.

Question: And the “Mortality (%)” value [2, 8]?
Answer: Its value is 78.6%.

Question: What about the “Probability Unit (P + 5)” value ([2]; Dose 389.5 μg/mL) of the same molecule?
Answer: Its value is 5.793.

Question: And the “Medial Lethal Concentration” value ([2]; female adult mites, 24 hrs, regression Y = 3.0472 + 1.1072X (r = 0.9548))?
Answer: Its value is 58.05 µg/mL.

Question: What about the “Medial Lethal Concentration” value ([3]; 24 hrs, regression Y = 2.3766 + 1.6846X (r = 0.9797)) of the same molecule?
Answer: The value was 36.08 µg/mL.

Question: And the “Mortality (%)” value ([3]; Dose 19.475 μg/mL)?
Answer: The value was 27.8%.

Question: And the “Probability Unit (P + 5)” value ([3]; Dose 19.475 μg/mL)?
Answer: The value was 4.413.

Question: And the “Mortality (%)” value ([3]; Dose 38.95 μg/mL)?
Answer: Its value is 51.4%.

Question: What about the “Probability Unit (P + 5)” value ([3]; Dose 38.95 μg/mL) of the same molecule?
Answer: Its value is 5.039.

Question: What about the “Mortality (%)” value ([3]; Dose 77.9 μg/mL) of the same molecule?
Answer: Its value is 80.0%.

Question: And the “Probability Unit (P + 5)” value ([3]; Dose 77.9 μg/mL)?
Answer: Its value is 5.840.

Question: What about the “Mortality (%)” value ([3]; Dose 389.5 μg/mL) of the same molecule?
Answer: Its value is 94.7%.

Question: What about the “Probability Unit (P + 5)” value ([3]; Dose 389.5 μg/mL) of the same molecule?
Answer: The value was 6.616.

Question: What about the “Control effect (%)” value ([4]; Day 1 after application) of the same molecule?
Answer: Its value is 79.53%.

Question: What about the “Decline rate (%) of living mites” value ([4]; Day 1 after application, field spray on strawberry leaves) of the same molecule?
Answer: Its value is 41.14%.

Question: And the “Residual no of mites” value ([4]; Day 1 after application, field spray on strawberry leaves, BVP10 389.5 μg/mL, reference diluted 3000 times)?
Answer: Its value is 206.

Question: And the “Control effect (%)” value ([4]; Day 4 after application)?
Answer: Its value is 83.71%.

Question: What about the “Decline rate (%) of living mites” value [4, 9] of the same molecule?
Answer: The value was 33.14%.

Question: And the “Residual number of mites” value [4, 9]?
Answer: The value was 234.

Question: What about the “Control effect (%)” value ([4]; Day 7 after application) of the same molecule?
Answer: Its value is 95.45%.

Question: And the “Decline rate (%) of living mites” value [4, 10]?
Answer: The value was 77.14%.

Question: And the “Residual number of mites” value [4, 10]?
Answer: The value was 80.
